Blank lines part the entries; values can stand above or below the molecule they belong to.
Key:
[1] = target: Gαo with the Gln52 mutation; assay: co-IP; N2a cells co-transfected 24 h with Gαo-GFP constructs and His6-RGS19 (1:1) or mRFP-Gβ1/mRFP-Gγ3 (1:1:1); lysate in GST-lysis buffer (20 mM Tris-HCl pH 8.0, 1% Triton X-100, 10% glycerol in PBS); Gαo-GFP precipitated with GST-tagged GFP nanobody and glutathione Sepharose 4B overnight at 4 °C; Western blot against GFP, mRFP, His6; blots quantified, normalised to the precipitated Gαo, 5 experiments
[2] = target: Gαo[Gln52Pro] and Gαo[Gln52Arg]; assay: as above

- fold reduction of co-precipitation against wild-type Gαo [1]: 2 to 4 fold
Molecule: Gβ1γ3 heterodimer (mRFP-Gβ1 and mRFP-Gγ3) (from UniProt P62873 1-340; P63215 1-75) (complex)

- fold reduction of co-precipitation against wild-type Gαo [2]: 2 to 3 fold
B1: His6-RGS19 (natural protein)
chain: MPTPHEAEKQITGPEEADRPPSMSSHDTASPAAPSRNPCCLCWCCCCSCSWNQERRRAWQASRESKLQPLPSCEVCATPSPEEVQSWAQSFDKLMHSPAGRSVFRAFLRTEYSEENMLFWLACEELKAEANQHVVDEKARLIYEDYVSILSPKEVSLDSRVREGINKKMQEPSAHTFDDAQLQIYTLMHRDSYPRFLSSPTYRALLLQGPSQSSSEA

— PMC8535069
